Assay results as given in patent US6153408A, “Altered major histocompatibility complex (MHC) determinant and methods of using the determinant” (Institut Pasteur and Institut National de la Sante et de la …, priority 1995, dated 2000).
“And” between values parts separate entries of the source, which are not always exact repeats. Equal values may be shown once.

Experiments:
SC-K^d -15 [1] = molecular target: T1, SC-K^d -15 (Mus musculus, UniProt P01887+P01902); experiment: Direct peptide binding assay: 35S-labeled SC-Kd-15 on plastic-coated peptides; conditions: for ^35 S-labeled SC-Kd bound to coated peptide: duplicates; for binding of peptide to SC-K^d -15 (in words): direct assay
T1 construct: connecting residue 276 of K^d heavy chain to the first residue of β2 -microglobulin; mature mouse beta2-microglobulin, fused after the spacer (same polypeptide); expressed in transfected cells; host or cells: monkey COS-1 cells, transient
T1 sequence (P01902+P01887 with tags, fused parts or gaps): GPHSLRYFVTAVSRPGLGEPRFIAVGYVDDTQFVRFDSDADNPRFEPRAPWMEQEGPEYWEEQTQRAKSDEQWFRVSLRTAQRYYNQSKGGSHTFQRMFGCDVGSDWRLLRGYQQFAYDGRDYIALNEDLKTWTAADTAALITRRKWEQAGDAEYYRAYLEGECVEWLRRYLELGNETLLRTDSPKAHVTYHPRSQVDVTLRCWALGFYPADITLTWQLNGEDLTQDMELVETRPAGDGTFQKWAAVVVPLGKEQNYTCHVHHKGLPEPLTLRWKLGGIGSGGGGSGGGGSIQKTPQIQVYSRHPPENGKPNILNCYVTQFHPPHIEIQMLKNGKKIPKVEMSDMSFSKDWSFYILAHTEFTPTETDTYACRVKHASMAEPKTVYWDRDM
Protocol: (§1) Direct Peptide Binding Assay. Wells of microtiter plates are pretreated with 100 μl 2.5% glutaraldehyde in distilled water for 2 h at 20° C., washed with distilled water, […] buffer, pH 9.6, or in PBS, pH 7.4 or pH 5.0. Remaining free sites are blocked by incubation for 2 h at 20° C. with BSA diluted 1% in PBS containing 0.05% Tween 20 (Tw) and 0.02% sodium azoture. […] After extensive washing, the radioactivity of each well is counted.
COS-1 cells (usually 10^7 cells) were transfected with pSC-K^d -15 DNA, labeled and lysed as above. […] After the final wash in PBS, SC-K^d -15 was eluted from the matrix with an equal volume of 3 M thiocyanate for 10 min on ice. After an overnight dialysis in PBS containing 0.1% NP40, 0.05% Tween and 0.2% BSA, SC-K^d -15 was used in direct binding test as below. Its purity was assessed by SDS-PAGE.
K^d molecules isolated from the spleen of BALB/c mice were then purified and iodinated.

HLA-DR3 = HLA-DR3 (Homo sapiens, UniProt P01903+P01911); experiment: Direct peptide binding assay: 125I-labeled HLA-DR3 (positive control); conditions: for binding of peptide to HLA-DR3 positive control (in words): direct assay
Chain of HLA-DR3 (P01903 26-254): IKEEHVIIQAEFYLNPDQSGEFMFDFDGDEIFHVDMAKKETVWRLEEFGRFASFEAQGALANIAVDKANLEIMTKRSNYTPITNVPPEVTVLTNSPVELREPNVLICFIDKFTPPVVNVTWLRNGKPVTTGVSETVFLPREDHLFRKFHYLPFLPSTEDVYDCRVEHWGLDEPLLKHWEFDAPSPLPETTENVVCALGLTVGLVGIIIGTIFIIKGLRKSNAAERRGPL
Chain of HLA-DR3 (P01911 30-266): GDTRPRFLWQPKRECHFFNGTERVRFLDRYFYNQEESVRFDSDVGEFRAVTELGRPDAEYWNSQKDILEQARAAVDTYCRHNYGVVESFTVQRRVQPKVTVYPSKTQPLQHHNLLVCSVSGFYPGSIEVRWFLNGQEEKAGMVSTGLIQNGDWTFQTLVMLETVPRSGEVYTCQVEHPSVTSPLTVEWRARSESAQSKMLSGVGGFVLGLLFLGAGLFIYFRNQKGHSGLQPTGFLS
Protocol: as §1

HLA-DRw13 = HLA-DRw13 (Homo sapiens, UniProt P01903+P01911); experiment: Direct peptide binding assay: 125I-labeled HLA-DRw13 (positive control); conditions: for binding of peptide to DRw13 positive control (in words): direct assay, printed DR213
Chain of HLA-DRw13 (P01903 26-254): as the sequence (P01903 26-254) above
Chain of HLA-DRw13 (P01911 30-266): as the sequence (P01911 30-266) above
Protocol: Direct Peptide Binding Assay. Wells of microtiter plates are pretreated with 100 μl 2.5% glutaraldehyde in distilled water for 2 h at 20° C., washed with distilled water, and coated for 16 h at 4° C. with 100 μl of peptide diluted at 5 μg/ml either in carbonate-bicarbonate buffer, pH 9.6, or in PBS, pH 7.4 or pH 5.0. Remaining free sites are blocked by incubation for 2 h at 20° C. with BSA diluted 1% in PBS containing 0.05% Tween 20 (Tw) and 0.02% sodium azoture. […] After extensive washing, the radioactivity of each well is counted.

H-2K = molecular target: T2, H-2K (Mus musculus, UniProt P01902); experiment: Direct peptide binding assay: 125I-labeled conventional Kd from BALB/c spleen
T2 construct: K^d molecules isolated from the spleen of BALB/c mice were then purified and iodinated; from tissue; host or cells: spleen of BALB/c mice
T2 sequence (P01902 22-368): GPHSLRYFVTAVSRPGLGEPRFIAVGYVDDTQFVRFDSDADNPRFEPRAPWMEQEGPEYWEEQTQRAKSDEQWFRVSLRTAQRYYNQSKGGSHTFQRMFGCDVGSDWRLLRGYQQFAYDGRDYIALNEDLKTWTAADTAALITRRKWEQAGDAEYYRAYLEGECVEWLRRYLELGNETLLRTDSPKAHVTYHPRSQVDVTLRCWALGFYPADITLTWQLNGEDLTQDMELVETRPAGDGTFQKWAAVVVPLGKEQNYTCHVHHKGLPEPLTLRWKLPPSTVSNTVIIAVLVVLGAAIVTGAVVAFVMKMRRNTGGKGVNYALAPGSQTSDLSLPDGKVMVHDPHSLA
T2 sequence (P01887 21-119 partner): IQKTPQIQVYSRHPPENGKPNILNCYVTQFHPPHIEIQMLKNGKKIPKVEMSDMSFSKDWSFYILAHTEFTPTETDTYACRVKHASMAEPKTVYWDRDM
Protocol: Direct Peptide Binding Assay. Wells of microtiter plates are pretreated with 100 μl 2.5% glutaraldehyde in distilled water for 2 h at 20° C., washed with distilled water, and coated for 16 h at 4° C. with 100 μl of peptide diluted at 5 μg/ml either in carbonate-bicarbonate buffer, pH 9.6, or in PBS, pH 7.4 or pH 5.0. Remaining free sites are blocked by incubation for 2 h at 20° C. with BSA diluted 1% in PBS containing 0.05% Tween 20 (Tw) and 0.02% sodium azoture. After washing, purified ^125 I-HLA molecules (100 μl containing 1.5×10^5 cpm, 10^-9 M) diluted in PBS containing 1% BSA, 0.05% Tw, 0.02% sodium azoture, 1 mM PMSF, and 10 μg/ml trypsin inhibitor are added and incubated for 20 h at 20° C. After extensive washing, the radioactivity of each well is counted.
Peptides used in this study are described in Choppin et al. (Choppin, J., Martinon, F., Gomard, E., Bahraoui, E., Connan, F., Bouillot, F., and Levy, J. -P, J. Exp. Med., 1990. 172:889 and references therein), except for HLA-Cw3 and HLA-A24 described in Maryanski, J. Ll, Pala, P., Cerottini, J. -C, and Corradin, G., J. Exp. Med. 1988. 167:1391. Binding assays were performed as described in Choppin, J., Martinon, F., Gomard, E., Bahraoui, E., Connan, F., Bouillot, F., and Levy, J. -P, J. Exp. Med., 1990. 172:889. […]

SC-K^d -15 [2] = molecular target: T1, SC-K^d -15; experiment: Competition experiment, env 312-327 bound to plastic, 35S-labeled SC-Kd; assay type: binding; conditions: Table (B) shows it for SC-Kd and H-2K

| Sequence | ^35 S-labeled SC-Kd bound to coated peptide (SC-K^d -15 [1]; Table 10 (A), peptide 30 μg/ml, pH 9.6, input 10,000 cpm) [cpm] | ^35 S-labeled SC-Kd bound to coated peptide (SC-K^d -15 [1]; Table (B), peptide 5 μg/ml, pH 9.6, input 6000 cpm, no coated peptide 228/223) [cpm] | binding of peptide to SC-K^d -15 (in words) (SC-K^d -15 [1]) | binding of peptide to HLA-DR3 positive control (in words) (HLA-DR3) | binding of peptide to DRw13 positive control (in words) (HLA-DRw13) | binding of peptide to conventional K^d (in words) (H-2K) | ^35 S-labeled SC-Kd bound to coated peptide (SC-K^d -15 [1]; Table 10 (A), peptide 10 μg/ml, pH 5, input 10,000 cpm) | ^125 I-labeled HLA-DR3 bound to coated peptide (HLA-DR3; Table 10 (A), peptide 10 μg/ml, pH 5, input 200000 cpm, first value of cell, duplicates) | competition with plastic-bound env 312-327 peptide (in words) (SC-K^d -15 [2]) | ^125 I-labeled HLA-DRw13 bound to coated peptide (HLA-DRw13; Table 10 (A), peptide 10 μg/ml, pH 5, input 200000 cpm, second value of cell, duplicates) |
| --- | --- | --- | --- | --- | --- | --- | --- | --- | --- | --- |
| IRIQRGPGRAFVTIGK [env 312-327, HIV 1 Env peptide, residues 312-327] | 750 | 390 | significant binding | significant binding | significant binding | found to bind |  |  |  |  |
| LFIHFRIGCRHSR [vpr 68-80] |  |  | significant binding | significant binding | significant binding |  | 710 cpm and 621 cpm | 18582 cpm and 18245 cpm | competed efficiently | 21838 cpm and 20593 cpm |
